{
  "source": "paper PMC8441738",
  "about": "(MedComm, 2021)",
  "target": "recombinant SARS-CoV-2 RBD-Fc (Severe acute respiratory syndrome …, UniProt P0DTC2)",
  "assay": "ELISA; natural RBD-Fc immobilised on ELISA plates",
  "data": [
    {"binder": "MA5 monoclonal antibody (antibody, V domains shown, also called group IV mAb; source: hybridoma cell line or transfection of linear expression cassettes) VH: EVMLVESGGGLVKPGGSLKLSCAASGFMFSRYAMSWVRQTPEKRLEWVATISSGGSYTYYPDSVKGRFTMSRDNAKNTLYLQMSSLRSEDTAMYNCARHDGNYVDYAMDYWGQGTSVTVSS VL: QIVLTQSPAIMSASLGEEITLTCSASSSVSHMHWYQQKSGTSPKLLIYSTFNLASGVPSRFSGSGSGTFYSLTISSVEAEDAADYYCHQWSSWTFGGGTKLEIK", "values": [
      {"measurement": "binding result", "result": "binds"}
    ]},
    {"binder": "MA1 monoclonal antibody (antibody, V domains shown, also called group I mAb; source: hybridoma cell line or transfection of linear expression cassettes) VH: QVQLKESGPGLVAPSQSLSITCTVSGFSLSDYSISWIRQPPGKGLEWLGVIWGGGSTYYNSALKSRLSISKDNSKSQVFLKMNSLQTDDTAMYYCAKHPLYYGSNSDGYYAMDYWGQGTSVTVSS VL: DIVMTQSHKFMSTSVGDRVSITCKASQDVGIVVAWYQQKPGQSPKLLIYWASTRHTGVPDRFTGSGSGTDFTLTISNVQSEDLADYFCQQYSSYPLTFGGGTKLEIK", "values": [
      {"measurement": "binding result", "result": "binds"}
    ]}
  ]
}
